Laboratory results: the DeepSol protein solubility set

experiment: soluble on expression in E. coli; label from the status in PepcDB or PDB records

Sequence	soluble on expression in E. coli
SLTRAVAALLPDGKRLHLQHGPIDLIIGAEGGPGAREAAFVTATARFETVLAELVGELPLLKTELAPDAPLPLGPVARRMDTACRPLMALRLTRMAAVAGAVADEVLAAMLSSTPLTRAYVNNGGDIALHLTGDTRFTLAMATPDGRDLGRISLGTGDRIGGIATSGLGGRSLSLGIAESVTVLAPSAAGADAAATLIANATDLPGHPAIRRAPANTVKDDSDLGQRPVVTHCGPLDRNEVLHALENGRKLAVEMIANGHIRSAHLSLRGQSCQAGAIPVIAPERRLALA	soluble
MNLNQLTGADLMAARTHIGLSISAVAKLTGINRNTLSQFEQEKASLSGSEKKRLAGCYEERGYHFDEPQTTDETVLATRYDDARERLVDAAYDVNMNGLGEAVLALADASHDLLSMLARPMDVAQEEVELDAVELPESYLEMHNVLQRHFLADKAGQMQGKVGFFKEDADERSAKLIAYMAQQYLTLLHAEMPEVVSLERDSLDDDSDNARVLDALANWTFYDALKEMTV	not soluble
MLSSINMVKIGLEVHVHLTSLKTKLFCSCPSDYTGKDPNTNVCPICLGLPGAIPVLNENAVKAAIMVALAINAEIANSLIMVRKHYFYPDMAKNYQISQYDGPGSIAISKGGYLKLREGKTVRIRRINIEEDPAKIIYPTGSMLTSKYTLLDYNRSGMGLLEIVTEPDMTEPKEAREFLEKLRSILEHLGVCNCDLEGAMRADANVSVEGGERVEIKNIGSPREVEEALKYEIARQKAAIAQGLPVKRETRHWDSERKVTVPTRTKETEEDYRYFPDPDLPPYPITQDLIEEIRKTLPELPDLRIKRLVTQYGISDYDATVLVMDKALADLFEETAKHYSNYKKLVNLLINDYLRWLNDKNLRPSQSKAGSQHLVELLKLLDDGVITIKIAKEILPEIVLEGKMPSSIIKERGLVAIKDEDYLINVIKEVINEEPDAAEKAKNDPKVINYLVGKVMKKTGKRADPQLTNELIKKILGIK	soluble
KKVYLIHGWGANRHAFDDLMPRLPATWPVSAVDLPGHGDAPFAQPFDIEAAADGIAAQIDTSADILGWSLGGLVALYLAARHPDKVRSLCLTASFARLTAAEDYPEGLAAPALGKMVGAFRTDYAKHIKQFLQLQLLHTPDAAEIIGRILPDLARCGTPQALQEALDAAERADARHLLDKIDVPVLLVFGGKDAITPLRMGEYLHRHLKGSRLVVMEKAAHAPFLSHAEAFAALCRDFVEG	not soluble
MGSDKIHHHHHHMPQFSPSYSFPVQIYYEDTDFSGVVYHPNFLKYFERAREHVIGAEQLRNLWQQQQLGFAVYRSDMLCHEGVEFADIIDIRTKFYFESKYRTVWHQEIWRPNGKKPAVTATIEMVCMNQARQLAPMPAELITQLSLGM	not soluble
MGSDKIHHHHHHDYEAVNTNPYGVSDGELGPLKYGARFMNMQQRVIPIGSPSLTTGPGNDLQNTDLISSGNYIGYFGNNNNWGFNNEANWNFTDSRMNYAYQNFYSQIFLPWNEIYEIAKDSDSPSEQAILEIANIVRNIAWLRATDVFGPIAYNSAGDGSIAPKFDSQEVVYRSMLADLSKSVELLNTISYSVMAQYDLIYNGNVQNWVKLANSLMLRIAVRVHFIDETLAKEYITKALDPKNGGVIEDISSEAKIKSSDKMPLLNSMLASVNEYNETRMGATIWGYLDGYKDPRLSAYFTEGTYGSGSWAQTGYFPVAPTNSKSKSETSYSAKFASRPKVDSNSPLYWFRASETYFLKAEAALYNLIGGDPKTFYEQGINISFQEQGVSGVATYLSGTGKPTGLTGSNYKYGTYNHDLSIGNTSPKWDDYTGNLSKQEEQLQKIITQKYLALYPNAVEAWTEYRRTGFPYLMKPMDEAAPGRIGASIEDCRVPERFRFAPTAYNSNPNMAEIPTLLGGGDIGATKLWWVRSNRPKQPNQ	not soluble
MGSDKIHHHHHHMKVSADVRAMIERRKKNYSLEAPFYTSDEIFALDMEAIFRQHWIQVAVEPDVPEPGDYITVDIGNDSILIVRDDDMQVRAFHNVCRHRGARLCNTDKGSLGNIVCPYHSWTYNLNGDLMFAEHMGEQFDRCKHSLKAVHVENLAGLIFICLADNPPADFAVVRAAMEPYMLPHALASCKIAASIDIIEEGNWKLTMENNRECYHCVANHPELTISLYEYGFGYQRTPANEEGMAAFEETVARRTAQWEAMQLPSAEIERLADLVTGFRTQRLPLDRDGESQTLDAKVASKKLLGGFEQADLGGLSFWTQPNSWHHFMSDHIVSFSVIPLSAGKTLVRTKWLVHKDAREGIDYDVDNLTAVWRATNDQDRALVEYSQRGATSSAYEPGPYSPFTEGLVEKFCEWYIGRMAQYSNAPQTHDAGDTAPASHGEKVVSFKR	not soluble
